Experiment [1] concerns the target T1, huCD33-R69 stably expressed on Jurkat cells (human, UniProt P20138 18-364).
T1 construct: whole, on cells; >200,000 receptors per cell; also called CD33 WT; CD33^ARG69
Description: FACS on cells.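 Also: fixed Jurkat cells bearing either CD33 variant, barcoded by dye, exposed to myc-tagged scFv periplasmic extracts, detected with anti-myc PE antibody and read by flow cytometry.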

Experiment [2] concerns the target T2, huCD33-G69 stably expressed on Jurkat cells (human, UniProt P20138 18-364).
T2 construct: whole, on cells; >200,000 receptors per cell; also called CD33 Mutant; CD33 R69G
Briefly: FACS on cells.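 Also: fixed Jurkat cells bearing either CD33 variant, barcoded by dye, exposed to myc-tagged scFv periplasmic extracts, detected with anti-myc PE antibody and read by flow cytometry.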

For experiment [3], the target named is T3, huCD33-G69-Fc recombinant protein (human, UniProt P20138 18-259).
T3 construct: extracellular domain; also called CD33 R69G
Description: BLI. (In general: BLI is a label-free optical method that tracks binding on a fibre tip over time.)
Description: (§1) Discovered scFvs were analyzed for binding to huCD33-R69-His or huCD33-G69-Fc recombinant proteins (for anti-CD33 scFvs; for CLL-1 scFvs, huCLL1-K244-Avi-Tev-His or huCLL1-Q244-Avi-Tev-His were used; for FLT3, huFLT3-T227-His or huFLT3-M227-Fc were used) using BLI on a ForteBio Octet HTX instrument. Streptavidin-coated biosensors were loaded with biotinylated anti-V5 tag monoclonal antibody for 5 min and were then quenched and blocked with 20 μM amine-PEG2-Biotin for 5 min. scFvs were captured on biosensors from scFv clone periplasmic extracts. huCD33 (or huCLL-1, or huFLT3) proteins were then associated with the captured scFvs for 2 minutes, followed by dissociation with buffer (1×HBST [10 mM HEPES pH 7.4, 150 mM NaCl, 0.05% Tween-20], 1 g/L BSA) for 5 minutes. […] Data was fitted with 1:1 Langmuir equation and off-rate values were reported.

For experiment [4], the target named is T4, huCD33-R69-His recombinant protein (human, UniProt P20138 18-259).
T4 construct: extracellular domain
Description: BLI.
Description: as §1

Experiment [5] concerns the target T5, huFLT3-M227-Fc (human, UniProt P36888 27-543).
T5 construct: extracellular domain; also called FLT3 Mutant
Briefly: BLI.
Description: as §1

The target in experiment [6] is T6, huFLT3-T227-His (human, UniProt P36888 27-543).
T6 construct: extracellular domain; also called FLT3 WT
Briefly: BLI.
Description: as §1

T2 sequence (P20138 18-364 R69G): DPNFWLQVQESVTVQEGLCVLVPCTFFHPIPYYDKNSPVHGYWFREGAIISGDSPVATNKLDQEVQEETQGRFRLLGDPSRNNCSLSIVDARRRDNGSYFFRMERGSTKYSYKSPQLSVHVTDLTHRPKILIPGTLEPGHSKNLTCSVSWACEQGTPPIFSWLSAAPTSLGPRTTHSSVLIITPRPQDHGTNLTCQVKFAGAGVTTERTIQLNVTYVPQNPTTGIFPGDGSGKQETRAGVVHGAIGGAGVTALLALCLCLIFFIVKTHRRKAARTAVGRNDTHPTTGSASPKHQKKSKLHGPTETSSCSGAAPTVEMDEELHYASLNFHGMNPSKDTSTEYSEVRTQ
T3 sequence (P20138 18-259 R69G): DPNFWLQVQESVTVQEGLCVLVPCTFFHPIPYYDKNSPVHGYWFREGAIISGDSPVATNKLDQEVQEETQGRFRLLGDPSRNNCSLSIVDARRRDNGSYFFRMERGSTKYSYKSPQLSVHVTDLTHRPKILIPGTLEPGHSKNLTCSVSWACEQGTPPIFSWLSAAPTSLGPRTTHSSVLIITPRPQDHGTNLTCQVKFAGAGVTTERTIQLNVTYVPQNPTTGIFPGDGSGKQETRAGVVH
T4 sequence (P20138 18-259): as the sequence (P20138 18-259 R69G) above, with G52R counted along it
T1 sequence (P20138 18-364): as the sequence (P20138 18-364 R69G) above, with G52R counted along it

B1: Polypeptide No. 32 (scFv, V domains shown)
VH: EVQLLESGGGLVQPGGSLRLSCAASGFTFSSYGMHWVRQAPGKGLEWVSSISGSGDTTYYADSVKGRFTISRDNSKNTLYLQMNSLRAEDTAVYYCARDNPYGDYGGSFDYWGQGTLVTVSS
VL: EIVMTQSPATLSVSPGERATLSCRASQSVSSSYLAWYQQKPGQAPRLLIYATSTRATGIPARFSGSGSGTEFTLTISSLQSEDFAVYYCQQYGSLPLTFGQGTKVEIKR
notes: scFv
B1: the “geometric mean MFI fold change over Jurkat parental” value (“geometric mean MFI fold change” for short) in experiment [1] was less than 2 fold; in experiment [2], 10 to 30 fold. For the same molecule, the binding result in experiment [3] was “binds”; in experiment [4], “no binding”.

B2: Polypeptide No. 271 (scFv, V domains shown)
VH: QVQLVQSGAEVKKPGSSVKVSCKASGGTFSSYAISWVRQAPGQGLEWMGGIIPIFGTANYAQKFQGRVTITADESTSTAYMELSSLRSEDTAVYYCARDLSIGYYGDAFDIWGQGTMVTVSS
VL: EIVMTQSPATLSVSPGERATLSCRASQSVSYNQLAWYQQKPGQAPRLLIYDISSRAAGIPARFSGSGSGTEFTLTISSLQSEDFAVYYCQQYGGLPATFGQGTRLEIKR
notes: scFv
As for B2, the binding result in experiment [5] and in experiment [6] was “binds” throughout.

B3: Polypeptide No. 277 (scFv, V domains shown)
VH: QVQLVQSGAEVKKPGSSVKVSCKASGYTFTGYYMHWVRQAPGQGLEWMGWIDPNSGGTNYAQKFQGRVTITADESTSTAYMELSSLRSEDTAVYYCARDVDTAMVTDYWGRGTLVTVSS
VL: EIVMTQSPATLSVSPGERATLSCRASQSVDNLVGWYQQKPGQAPRLLIYDISSRATGIPARFSGSGSGTEFTLTISSLQSEDFAVYYCQQYGRSPITFGQGTRLEIKR
notes: scFv
B3: the binding result in experiment [5] and in experiment [6] was “binds” throughout.

B4: Polypeptide No. 26 (scFv, V domains shown)
VH: QVQLVQSGAEVKKPGASVKVSCKASGYTFTENEMHWVRQAPGQGLEWMGWMNPNSGNTGYAQKFQGRVTMTRDTSTSTVYMELSSLRSEDTAVYYCAREGGDWPYYYMDVWGKGTTVTVSS
VL: DIQMTQSPSSLSASVGDRVTITCQASQDIRNYLNWYQQKPGKAPKLLIYAASSLQSGVPSRFSGSGSGTDFTLTISSLQPEDFATYYCQQTSSTPLTFGPGTKVDIKR
notes: scFv
For B4, the entries for the “geometric mean MFI fold change” value in experiment [1] and in experiment [2] were less than 2 fold and 2 to 10 fold, respectively. For the same molecule, the figures for the binding result in experiment [3] and in experiment [4] were “binds” and “no binding”, respectively.

B5: Polypeptide No. 27 (scFv, V domains shown)
VH: QVQLVQSGAEVKKPGASVKVSCKASGYTLTGYYMHWVRQAPGQGLEWMGWMNPSSGNTGYAQQFQGRVTMTRDTSTSTVYMELSSLRSEDTAVYYCARASSDRYYYDGVWYFDLWGRGTLVTVSS
VL: DIQMTQSPSSLSASVGDRVTITCRASQDIRNNLGWYQQKPGKAPKLLIYGASSLQSGVPSRFSGSGSGTDFTLTISSLQPEDFATYYCQQTYSSPPTFGQGTKLEIKR
notes: scFv
B5: the results for the “geometric mean MFI fold change” value in experiment [1] and in experiment [2] were less than 2 fold and 2 to 10 fold, respectively. Moreover, the figures for the binding result in experiment [3] and in experiment [4] were “binds” and “no binding”, respectively.

B6: Polypeptide No. 264 (scFv, V domains shown)
VH: QVQLVQSGAEVKKPGSSVKVSCKASGYTLTELSMHWVRQAPGQGLEWMGGIIPISSATSIPQKFQGRVTITADESTSTAYMELSSLRSEDTAVYYCARGALYSSSPVRVVAGTKGWFDPWGQGTLVTVSS
VL: DIQMTQSPSSLSASVGDRVTITCRASQDISNYLAWYQQKPGKAPKLLIYAASSLQSGVPSRFSGSGSGTDFTLTISSLQPEDFATYYCQQYYSYPLTFGGGTKVEIKR
notes: scFv
Turning to B6, the binding result in experiment [5] and in experiment [6] was “binds” in each case.

B7: Polypeptide No. 272 (scFv, V domains shown)
VH: QVQLVQSGAEVKKPGSSVKVSCKASGYIFTNYYIQWVRQAPGQGLEWMGGIIPIFGTVGYAQKFQGRVTITADESTSTAYMELSSLRSEDTAVYYCARGRIGGGNDYWGQGTLVTVSS
VL: DIQMTQSPSSLSASVGDRVTITCQASQYISNYLNWYQQKPGKAPKLLIYDASSLESGVPSRFSGSGSGTDFTLTISSLQPEDFATYYCQQSYSTPYTFGQGTKLEIKR
notes: scFv
As to B7, the binding result in experiment [5] and in experiment [6] was “binds” each time.

B8: Polypeptide No. 275 (scFv, V domains shown)
VH: QVQLVQSGAEVKKPGSSVKVSCKASGYTFTSYYMHWVRQAPGQGLEWMGWMNPYSGNTGYAQKFQGRVTITADESTSTAYMELSSLRSEDTAVYYCARVGSGWYSDYWGQGTLVTVSS
VL: not shown
notes: scFv
Consider B8, for which the binding result in experiment [5] and in experiment [6] was “binds” in each case.

B9: Polypeptide No. 266 (scFv, V domains shown)
VH: QVQLVQSGAEVKKPGSSVKVSCKASGYSLTELSIHWVRQAPGQGLEWMGGINPISGTANYAQKFQGRVTITADESTSTAYMELSSLRSEDTAVYYCARGTVRLNWFDPWGQGTLVTVSS
VL: EIVMTQSPATLSVSPGERATLSCRASQSVGSQLGWYQQKPGQAPRLLIYGASTRATGIPARFSGSGSGTEFTLTISSLQSEDFAVYYCQQSFSTPLTFGGGTKVEIKR
notes: scFv
In the case of B9, the binding result in experiment [5] and in experiment [6] was “binds” throughout.

B10: Polypeptide No. 29 (scFv, V domains shown)
VH: QVQLVQSGAEVKKPGASVKVSCKASGYTFTGYYLHWVRQAPGQGLEWMGVINVRRGSTRYAQNFQGRVTMTRDTSTSTVYMELSSLRSEDTAVYYCARVSGSYYQPWGQGTLVTVSS
VL: DIQMTQSPSSLSASVGDRVTITCRASQSISRWLAWYQQKPGKAPKLLIYDASNLETGVPSRFSGSGSGTDFTLTISSLQPEDFATYYCQQGNSFPPIFGGGTKVEIKR
notes: scFv
In the case of B10, the “geometric mean MFI fold change” value in experiment [1] was less than 2 fold; in experiment [2], 2 to 10 fold. The values for the binding result in experiment [3] and in experiment [4] were “binds” and “no binding”, respectively.

B11: Polypeptide No. 33 (scFv, V domains shown)
VH: QVQLVQSGAEVKKPGASVKVSCKASGYTFTSYYMHWVRQAPGQGLEWMGIIDPSGGSTNYAQKFQGRVTMTRDTSTSTVYMELSSLRSEDTAVYYCARDYYGSGSYYGLDYWGRGTLVTVSS
VL: DIQMTQSPSSLSASVGDRVTITCRASQGISNNLNWYQQKPGKAPKLLIYDASNLETGVPSRFSGSGSGTDFTLTISSLQPEDFATYYCQQANSFPLTFGPGTKVDIKR
notes: scFv
Take B11: the “geometric mean MFI fold change” value in experiment [1] is less than 2 fold; in experiment [2], greater than 30 fold. For the same molecule, the binding result in experiment [3] is reported as “binds”; in experiment [4], “no binding”.

B12: Polypeptide No. 255 (scFv, V domains shown)
VH: QVQLVQSGAEVKKPGSSVKVSCKASGYTLTELSMHWVRQAPGQGLEWMGGIIPISGTVTYAQKFQGRVTITADESTSTAYMELSSLRSEDTAVYYCANKGQQLVRGYFQHWGQGTLVTVSS
VL: DIQMTQSPSSLSASVGDRVTITCQASHDIRNSVNWYQQKPGKAPKLLIYATSSLQSGVPSRFSGSGSGTDFTLTISSLQPEDFATYYCQQSYNTPFTFGQGTKLEIKR
notes: scFv
Turning to B12, the binding result in experiment [5] and in experiment [6] was “binds” throughout.

B13: Polypeptide No. 267 (scFv, V domains shown)
VH: QVQLVQSGAEVKKPGSSVKVSCKASGYTLTSFGISWVRQAPGQGLEWVGMIIPLSGTTHYAQKFQGRVTITADESTSTAYMELSSLRSEDTAVYYCANLYGGNAYYYYGMDVWGQGTTVTVSS
VL: DIQMTQSPSSLSASVGDRVTITCRASQDISNFVAWYQQKPGKAPKLLIYAASSLQSGVPSRFSGSGSGTDFTLTISSLQPEDFATYYCQQSFDTPYTFGQGTKLEIKR
notes: scFv
Consider B13, for which the binding result in experiment [5] and in experiment [6] was “binds” throughout.

B14: Polypeptide No. 31 (scFv, V domains shown)
VH: QVQLVQSGAEVKKPGSSVKVSCKASGGTFSTYAITWVRQAPGQGLEWMGGIIPIVGRANYAQKFQGRVTITADESTSTAYMELSSLRSEDTAVYYCARSGGHDLDYWGQGTLVTVSS
VL: DIQMTQSPSSLSASVGDRVTITCRASQGIGNDLGWYQQKPGKAPKLLIYGASSVQSGVPSRFSGSGSGTDFTLTISSLQPEDFATYYCQQSYSTPITFGQGTRLEIKR
notes: scFv
Regarding B14, the “geometric mean MFI fold change” value in experiment [1] is less than 2 fold; in experiment [2], 10 to 30 fold. Besides, the binding result in experiment [3] is given as “binds”; in experiment [4], “no binding”.

B15: Polypeptide No. 35 (scFv, V domains shown)
VH: QVQLVQSGAEVKKPGASVKVSCKASGYTFTDYYMHWVRQAPGQGLEWMGIINPSGGSTRYAQKFQGRVTMTRDTSTSTVYMELSSLRSEDTAVYYCARVDGRRWLRSDYWGQGTLVTVSS
VL: DIQMTQSPSSLSASVGDRVTITCRASQGIRNDLAWYQQKPGKAPKLLIYAASTLQNGVPSRFSGSGSGTDFTLTISSLQPEDFATYYCQQSYSTPWTFGQGTKVEIKR
notes: scFv
For B15, the “geometric mean MFI fold change” value in experiment [1] is less than 2 fold; in experiment [2] it was 2 to 10 fold. The values for the binding result in experiment [3] and in experiment [4] were “binds” and “no binding”, respectively.

B16: Polypeptide No. 274 (scFv, V domains shown)
VH: QVQLVQSGAEVKKPGSSVKVSCKASGYTFTYRYLHWVRQAPGQGLEWMGRITPISGTTNYAQKFQGRVTITADESTSTAYMELSSLRSEDTAVYYCAKDSGQLAHYGMDVWGQGTTVTVSS
VL: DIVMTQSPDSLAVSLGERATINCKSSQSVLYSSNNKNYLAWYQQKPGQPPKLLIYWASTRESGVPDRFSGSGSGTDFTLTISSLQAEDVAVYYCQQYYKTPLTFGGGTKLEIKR
notes: scFv
In the case of B16, the binding result in experiment [5] and in experiment [6] was “binds” throughout.

B17: Polypeptide No. 285 (scFv, V domains shown)
VH: QVQLVQSGAEVKKPGSSVKVSCKASGYSFTNYYMHWVRQAPGQGLEWMGGIIPVFGTTTYSQTFQGRVTITADESTSTAYMELSSLRSEDTAVYYCARESQDGDFDYWGQGTLVTVSS
VL: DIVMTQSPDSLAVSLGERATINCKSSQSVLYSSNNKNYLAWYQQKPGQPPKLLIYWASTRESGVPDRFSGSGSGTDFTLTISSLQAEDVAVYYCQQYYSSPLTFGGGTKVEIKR
notes: scFv
Regarding B17, the binding result in experiment [5] and in experiment [6] was “binds” throughout.
